Biological target: Htz1(T46C)-2xFLAG (yeast H2A.Z with a cysteine probe) (yeast)
Experiment: cross-linking; VivosX: disulfide cross-linking in living yeast cells with 180 uM 4-DPS for 20 min at 30 C; TCA fixation; non-reducing SDS-PAGE and anti-FLAG immunoblot, bands normalised to H4; WT cells (swc2 and swr1 deletion cells also tested, with fewer ZZ and AZ adducts)

| percent of bulk H2A.Z in the H2A.Z-to-H2A.Z cross-linked adduct (WT cells) [%] | percent of bulk H2A.Z in the H2A-to-H2A.Z cross-linked adduct (WT cells) [%] | Substance |
| --- | --- | --- |
| 12 |  | Htz1(T46C)-2xFLAG (yeast H2A.Z with a cysteine probe) (natural protein) |
|  | 57 | 2xV5-Hta1(N39C) (yeast H2A with a cysteine probe) (natural protein) |

From paper PMC12068740
